Our source for the OD 490/630 nm values is US20180044434A1.

The target in assay [1] is T1, Ala mutant of TA0096, SEQ ID NO: 32.
T1 sequence (peptide): EENMDAQWMQDEMEIGY
Put plainly: ELISA, coated peptide. (ELISA stands for enzyme-linked immunosorbent assay.)

In assay [2] the target is T2, Ala mutant having 3-amino acid substitution, SEQ ID NO: 46.
T2 sequence (peptide): EENMDDAAAQDEMEIGY
In words: ELISA, coated peptide.

Where a chain is given by its changes, count along the chain named.

B1: A11 (antibody, V domains shown)
VH: AVTLDESGGGLQTPGGALSLVCKASGFDFSSYGMGWMRQAPGKGLEYVAAIRNDGSWTGYGAAVKGHATISRDNGQSTVRLQLNNLRAEDTGTYYCAKTTGSRGGSIDAWGHGTEVIVS
VL: ASTQPSSVSANLGGTVEITCSGGGRYYYGWYQQKSPGSAPVTVIYANDKRPSDIPSRFSGSKSGSTGTLTITGVQAEDEAVYFCGSAETSSYVFGAGTTLTVL
B1 displayed an OD 490/630 nm in assay [1] of 0.628.

B2: G8 (antibody, V domains shown)
VH: B1 VH with D28T, S31T, G33A, H67R, S71L, N84S, T99Y, R103S, D108G
VL: ASTQPSSVSANLGGTVEITCSGGNRNYYYGWYQQKSPGSAPVTLIYANDKRPSNIPSRFSGSKSGSTGTLTITGVQAEDEAVYFCGTADTGKYVFGAGTTLTVL
B2: the OD 490/630 nm in assay [2] amounted to 0.178.

B3: E9 (antibody, V domains shown)
VH: B1 VH with A17T, A24G, D28T, A62S, H67R, G92A, T100S, R103S, I107V
VL: B1 VL
With B3, in assay [1], the OD 490/630 nm worked out at 0.177.
